The values below come from the DeepSol protein solubility set.

This data set is described as follows: soluble on expression in E. coli; label from the status in PepcDB or PDB records.
In the case of “SNAMSKDSESNLAQRQSQPKAHADLRINSHWIIPIENTTDHNLVSNILIDHCLLIKDGIILAIEPQSSCQIPATETLDLGQQVLMPGWVNAHGHAAMSLFRGLADDLPLMTWLQEHVWPAEAQHVDEHFVKQGTELAIAEMIQSGTTTFADMYFYPQQSGEAALAAGIRAVCFAPVLDFPTNYAQNADEYIRKAIECNDRFNNHPMNEQGLVQIGFGPHAPYTVSDEPLKEITMLSDQLDMPVQIHLHETDFEVSESLETFNKRPTQRLADIGFLNERVSCVHMTQVDDGDIKILQKTGASIIHCPESNLKLASGFCPIAKLSAANIPLAIGTDGAASNNDLDMFSETKTAALLAKGVSQDASAIPAIEALTMATLGGARALGIDDITGSLKPGKAADIQAIDLNTLSSQPVFDPVSHMVYCTKSTQVSHVWVNGRCLLKNGELTTLNEETLINHAKAWASAIRTPIK”, the “soluble on expression in E. coli” value is reported as “soluble”.

Regarding “SNAMTEEHVVLLDEQDKPSGTLEKYAAHTLNTPLHLAFSCWLFNEDGQLLVTRRSLSKKAWPGVWTNSVCGHPQQGETTEEAIIRRCRFELGVEITDLTPVYPHFSYRATDPNGIVENEVCPVFAARATSVLQVNSEEVMDYQWSEFKSVWKSLLATPWAFSPWMVMQASDEQARERLLNYCQR”, the “soluble on expression in E. coli” value is reported as “soluble”.

As to “SNAMTTKRVKKMGKEEMKEMFDLVIYAFNQEPTAERQERFEKLLSHTQSYGFLIDEQLTSQVMATPFQVNFHGVRYPMAGIGYVASYPEYRGEGGISAIMKEMLADLAKQKVALSYLAPFSYPFYRQYGYEQTFEQAEYTIKTEDWPRVKRVPGTIKRVSWADGKEVIKDVYLENQRAHSGGVIRETWWLDYTLNRASKPNNQAIYYSSEGKAEGYVIYRIAAGTFEIVEWNYLTNTAFKALAGFIGSHSGSVQSFHWINGFAGKDLNDLMPTPAASVKILPYMMARIVELQTFLEKYPFQSGEKETYSLEIEDSYGPWNEGIWTITIDEQGKATVTKGAAEKEGTAALKADIQTWTQLFLGYRSAETLSFYERLQGDATIAQRLGQRLVKGMPILEDYF”, the “soluble on expression in E. coli” value is recorded as “soluble”.

For the sequence “SNAWGLSVERSTYFLAPADRHYLADYARQAEDAWRREGAAGAERFRKELSAKEDTWVALVGPHLESLGSTPLSAEESSHLTFMRKLDWPMSRRLQDELPYVSIEFPGHPEQGRLVIQLPERLLPG”, the “soluble on expression in E. coli” value was “soluble”.

Take “SNQLQQLQNPGESPPVHPFVAPLSYLLGTWRGQGEGEYPTIPSFRYGEEIRFSHSGKPVIAYTQKTWKLESGAPMHAESGYFRPRPDGSIEVVIAQSTGLVEVQKGTYNVDEQSIKLKSDLVGNASKVKEISREFELVDGKLSYVVRMSTTTNPLQPHLKAILDKL”: the “soluble on expression in E. coli” value is “soluble”.

As to “SPAPVQDPHLIKVTVKTPKDKEDFSVTDTCTIQQLKEEISQRFKAHPDQLVLIFAGKILKDPDSLAQCGVRDGLTVHLVIKRQHRAMGNECPA”, the “soluble on expression in E. coli” value is “soluble”.

In the case of “SPNPPKLTKQMNAIIDTVINYKDSSGRQLSEVFIQLPSRKELPEYYELIRKPVDFKKIKERIRNHKYRSLGDLEKDVMLLCHNAQTFNLEGSQIYEDSIVLQSVFKSARQ”, the “soluble on expression in E. coli” value was “soluble”.

Turning to “SQGENVDHAQPISTWSAEQELHLVVFTKPPIAGLTKQRLSREIGSTLATRISAALVENTLATAYDWLQGLDLQAGGTGAVHLYYTPVESEQAKAECVERWLDDSVRHRYPAFRIAPQKASKVQSTGDQKQDPLGSRLIQAFTEVTSLVDESRDAHVVVIGSDCPALDTAVLQQAFAALHAGHGAVIGPAQDGGYYLLGLAFAAAERTRWARVIYAAFGPHLVFSQNDVCARTVEALRNDGVRTICLPVTLNDVDTAQDLVHLPASMRPREWFSSANARLHKTSDLVETAPAPGSTTCDEEVDADKLDPSVQNVCSRQV”, the “soluble on expression in E. coli” value is listed as “soluble”.

On to “SQPLLDRSIPDFTAFTTVDDWLSAIKMVQYRDSFLTAGFTSLQLVTQMTSEDLLRIGITLAGHQKKILNSIHSMRVQISQSPTAMA”, for which the “soluble on expression in E. coli” value is “soluble”.

Regarding “SQSLGDRQRDNEKIDKMQQILRSVNAGIEDKGKVIARYTDVIKQELLINQDGTVAKTFEGEQLAQNEAFTLNTRNAFKSAANDPSISLPLYIAEIEGQKK”, the “soluble on expression in E. coli” value is on record as “not soluble”.

Regarding “SQTVHFQGNPVTVANSIPQAGSKAQTFTLVAKDLSDVTLGQFAGKRKVLNIFPSIDTGVSAASVRKFNQLATEIDNTVVLCISADLPFAQSRFCGAEGLNNVITLSTFRNAEFLQAYGVAIADGPLKGLAARAVVVIDENDNVIFSQLVDEITTEPDYEAALAVLKA”, the “soluble on expression in E. coli” value is listed as “soluble”.

Take “SREAVTVQVGGFANYVGSYFWNFQDELLGLADDPDADPVFKNAALDMDVLYRSGETHQGVATYCPRLVSVDSRGSLGSLSSSGNLGQSSTAADQLNVATWSGNVTRSVSKPHGRNLFLQSLVEEGQNPSTSNGGSNSQKSVEYKDLIECLENGINFWTDYSKVHYHPQSLYELYGSWTDFDKFDNYGSAQEVVSDWSQIEEMNERLRFFVEECDHIQGIQFIVDDSGGFSSVAAQFLENIADDYTNTLVLLYCVRDPMTLGPSRRNQRESIMRALHDAVSFSKLSSFCNLMVPIGPPSLSRSCMSPYLYIQDEKPFHASAVCAAAIHSITVPFRLQRTGPSSDLAHSSGNLDIGELVHILSDQGRQNMVTALDVAMPAPSLTDRDAMGNIEMKLHSLTPEISDEDEDPYSVESLVVHGALDRGGQRTSISQVKDSVCSVYEARETKPKFSHLSASLCPLPVPLPFPSIFRGNIGRHGEILSDHTEESQPKGSLDIESIPMAARLRSSSAVLPFIERRSGSLQKHGVARGAIGSLVLHDWGFGREEVEDMAEHLAKLLGPFHPEMDLTSDSD”: the “soluble on expression in E. coli” value is listed as “soluble”.

Regarding “SRGRGGTGGARRLSCGARRRAARGTSPGRRLSTAWSQPQPPPEEYAGADDVSQSPVAEEPSWVPSPRPPVPHESPEPPSGRSLVQRDIQAFLNQCGASPGEARHWLTQFQTCHHSADKPFAVIEVDEEVLKCQQGVSSLAFALAFLQRMDMKPLVVLGLPAPTAPSGCLSFWEAKAQLAKSCKVLVDALRHNAAAAVPFFGGGSVLRAAEPAPHASYGGIVSVETDLLQWCLESGSIPILCPIGETAARRSVLLDSLEVTASLAKALRPTKIIFLNNTGGLRDSSHKVLSNVNLPADLDLVCNAEWVSTKERQQMRLIVDVLSRLPHHSSAVITAASTLLTELFSNKGSGTLFKNAERMLRVRSLDKLDQGRLVDLVNASFGKKLRDDYLASLRPRLHSIYVSEGYNAAAILTMEPVLGGTPYLDKFVVSSSRQGQGSGQMLWECLRRDLQTLFWRSRVTNPINPWYFKHSDGSFSNKQWIFFWFGLADIRDSYELVNHAKGLPDSFHKPASDPGS”, the “soluble on expression in E. coli” value is listed as “soluble”.

For “SRLFSKALKGDHRCGETETPKSCSEVAGCKAAMRHQGKIPEELSLDDRARTQKKWGRGKWEPEPSSKPPREATLEERHARGEKHLGVEIEKTSGEIIRCEKCKRERELQQSLERERLSLGTSELDMGKGPMYDVEKLVRTRSCRRSPEANPASGEEGWKGDSHRSSPRNPTQELRRPSKSMDKKEDRGPEDQESHAQGAAKAKKDLVEVLPVTEEGLREVKKDTRPMSRSKHGGWLLREHQAGFEKLRRTRGEEKEAEKEKKPCMSGGRRMTLRDDQPAKLEKEPKTRPEENKPERPSGRKPRPMGIIAANVEKHYETGRVIGDGNFAVVKECRHRETRQAYAMKIIDKSRLKGKEDMVDSEILIIQSLSHPNIVKLHEVYETDMEIYLILEYVQGGDLFDAIIESVKFPEPDAALMIMDLCKALVHMHDKSIVHRDLKPENLLVQRNEDKSTTLKLADFGLAKHVVRPIFTVCGTPTYVAPEILSEKGYGLEVDMWAAGVILYILLCGFPPFRSPERDQDELFNIIQLGHFEFLPPYWDNISDAAKDLVSRLLVVDPKKRYTAHQVLQHPWIETAGKTNTVKRQKQVSPSSEGHFRSQHKRVVEQVS”, the “soluble on expression in E. coli” value was “soluble”.

As for “SRLMNEIRETRGLAYSVYSTFAPYQEKGPFEIGLQTKKEQAEQALQLTQKTLRDFVEQGPTEEELQAARQNIVGGFPLRIDSNQKILGYLGVIGFYDLPLTYLEDYVKAVEKVTVAQIRDAFKRRIDPAGMVTVVVGA”, the “soluble on expression in E. coli” value is on record as “not soluble”.

With “SRMNPTIMVPGSEATQERFNETLASLNKQGKKHSILKLTVHKDNSISYSGQIAASDNRPYIVVAFADNKDSYTTIKKQAKWLDHALDELQKKYHFKNFNAIGHSNGGLDWTVYLENYYAKENFHLNTLMTIGTPYNFEVVNSSNHTQMLQDLIAAKDALPDDLTVYNVAGTNSYDGDYIVPITSVETGKYIFQKTIKQYTQITVTGNEAEHSDLPTNKEVLDLISENILNNNRKKVDPKNQN”, the “soluble on expression in E. coli” value is reported as “not soluble”.

Take “SRRSLRAGKRRQTAGRKSKSPPKVPIVIQDDSLPAGPPPQIRILKRPTSNGVVSSPNSTSRPTLPVKSLAQREAEYAEARKRILGSASPEEEQEKPILDRPTRISQPEDSRQPNNVIRQPLGPDGSQGFKQRR”: the “soluble on expression in E. coli” value is “soluble”.

“SRSKQKSRRRCFQCQTKLELVQQELGSCRCGYVFCMLHRLPEQHDCTFDHMGRG”: the “soluble on expression in E. coli” value is given as “soluble”.

On to “SRTLQFTKMATDHSGAGNLMDCWNAGLELKSCTDEIVKFFLSQTGTSEPPVKGGIDKDCCGAIGLVVKDCWSVMFTSLGLTTMEGNNLREYCEFQAEKSELSPSPAPETLALSPVEITYPGLDY”, for which the “soluble on expression in E. coli” value was “soluble”.

For “SSAEQSFLFSREEADTLRLKVEELEGERSRLEEEKRMLEAQLERRALQGDYDQSRTKVLHMSLNPTSVARQRLREDHSQLQAECERLRGLLRAMERGGTV”, the “soluble on expression in E. coli” value is on record as “soluble”.

Consider “SSATPIVQFQGESNCLKCFRYRLNDKHRHLFDLISSTWHWASPKAPHKHAIVTVTYHSEEQRQQFLNVVKIPPTIRHKLGFMSMHLL”, for which the “soluble on expression in E. coli” value is “soluble”.

Regarding “SSDANLDSSKKNFLEGEVDDEESVILTLVPVKDDANMEQMEPSVSSTSDVKLEKPKKYNPGHLLQTNEQFTAPQKARCKIPALPLPTILPPINKVCRDTLRDWCQQLGLSTNGKKIEVYLRLHRHAYPEQRQDMPEMSQETRLQRCSRKRKAVTKRARLQSSYEMNERAEETNTVEVITSAPGAMLASWARIAARAVQPKALNSCSIPVSVEAFLMQASGVGWCVVHGRLLSADTKGWVRLQFHAGQAWVPTTHRRMISLFLLPACIFPSPGIEDNMLCPDCAKRNKKMMKRLMTVEK”, the “soluble on expression in E. coli” value is “soluble”.

With “SSEDLAKQLASYKAQLQQVEAALSGNGENEDLLKLKKDLQEVIELTKDLLSTQPSETLASSDSFASTQPTHSWKVGDKCMAVWSEDGQCYEAEIEEIDEENGTAAITFAGYGNAEVTPLLNLKPVEEGRKAKEDSGNKPMSKKEMIAQQREYKKKKALKKAQRIKELEQEREDQKVKWQQFNNRAYSKNKKGQVKRSIFASPESVTGKVGVGTCGIADKPMTQYQDTSKYNVRHLMPQ”, the “soluble on expression in E. coli” value is “soluble”.

Regarding “SSEQTLEYFLNKGTIRRKDAADIEWYHAANSKSKLMEALRGSAQMIEADVLLRGADPEEPIMAHPPAKDSDITLQDWLKEVVKTDKGIKLDFKSLAAVSQSMSLLEEIRDQLKGPVWINADILPGPGGTATPVDPHVFLQEVAQRSENDVLSLGWTTGWTANVDNPGYSWEMVHQMEELCRPLKQPVTFPVRASLLPMSFPQFQWLLEQSDRSEILH”, the “soluble on expression in E. coli” value is “soluble”.
